From IntAct's records for PubMed 7664803

B1: Proto-oncogene tyrosine-protein kinase LCK (Mus musculus), P06240 (parent)
chain: MGCVCSSNPEDDWMENIDVCENCHYPIVPLDSKISLPIRNGSEVRDPLVTYEGSLPPASPLQDNLVIALHSYEPSHDGDLGFEKGEQLRILEQSGEWWKAQSLTTGQEGFIPFNFVAKANSLEPEPWFFKNLSRKDAERQLLAPGNTHGSFLIRESESTAGSFSLSVRDFDQNQGEVVKHYKIRNLDNGGFYISPRITFPGLHDLVRHYTNASDGLCTKLSRPCQTQKPQKPWWEDEWEVPRETLKLVERLGAGQFGEVWMGYYNGHTKVAVKSLKQGSMSPDAFLAEANLMKQLQHPRLVRLYAVVTQEPIYIITEYMENGSLVDFLKTPSGIKLNVNKLLDMAAQIAEGMAFIEEQNYIHRDLRAANILVSDTLSCKIADFGLARLIEDNEYTAREGAKFPIKWTAPEAINYGTFTIKSDVWSFGILLTEIVTHGRIPYPGMTNPEVIQNLERGYRMVRPDNCPEELYHLMMLCWKERPEDRPTFDYLRSVLDDFFTATEGQYQPQP

Legend:
[1] = variants of: B1; details: with cd4_mouse Cd4, P06332
Sequence of cd4_mouse Cd4, P06332 (P06332 whole entry): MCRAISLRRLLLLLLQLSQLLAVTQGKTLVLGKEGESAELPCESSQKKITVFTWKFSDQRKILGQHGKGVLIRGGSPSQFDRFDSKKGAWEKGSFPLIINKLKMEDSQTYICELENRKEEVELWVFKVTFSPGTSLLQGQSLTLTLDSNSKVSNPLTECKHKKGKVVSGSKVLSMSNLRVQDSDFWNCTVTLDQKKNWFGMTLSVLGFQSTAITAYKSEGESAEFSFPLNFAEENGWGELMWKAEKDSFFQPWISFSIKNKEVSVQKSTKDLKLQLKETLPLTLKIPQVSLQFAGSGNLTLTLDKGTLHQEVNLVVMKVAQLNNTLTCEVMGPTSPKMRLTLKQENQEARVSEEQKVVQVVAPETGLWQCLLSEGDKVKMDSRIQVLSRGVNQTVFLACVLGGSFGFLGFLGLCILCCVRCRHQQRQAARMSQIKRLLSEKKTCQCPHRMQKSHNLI

[2] = variants of: B1; details: with cd8a_mouse Cd8a

effect of a mutation on the interaction [1]	effect of a mutation on the interaction [2]	Variant
decreasing interaction	decreasing interaction	C23A
decreasing interaction	decreasing interaction	C20A
